Data as given in the Human Domainome abundance scans (Beltran et al. 2025).

B1: GA-binding protein alpha chain, residues 172 to 250; numbered along this chain, Q06546 (parent)
chain: GYRKEQERLGIPYDPIQWSTDQVLHWVVWVMKEFSMTDIDLTTLNISGRELCSLNQEDFFQRVPRGEILWSHLELLRKY

Variants of: B1
Experiment: abundance fitness (aPCA) (normalised: wild type 0, dead -1); higher = more abundant; growth selection in yeast, the domain comes from the species named
Settings: Homo sapiens

Abundance fitness of substitutions, site by site:
S35: C -0.044 | F -0.42 | R -0.045 | P -0.091 | T -0.013 | I -0.781 | N -0.009 | M -0.14 | H 0.008 | L -0.204 | A -0.086 | E -0.035 | V -0.165 | K -0.028 | G 0.018 | Y -0.205 | W -0.335 | Q 0.014
D38: Q -0.099 | V -0.364 | N -0.082 | A -0.154 | R -0.168 | S -0.063 | H -0.055 | P -0.009 | K -0.091 | T -0.08 | I -0.626 | E 0.03 | Y -0.261 | F -0.492 | W -0.149 | G -0.031 | M -0.364
L44: H -0.825 | M -0.019 | P -0.865 | E -0.876 | C -0.282 | K -0.862 | A -0.715 | Q -1.09 | R -0.989 | G -0.711 | S -0.745 | V -0.193 | D -0.945 | F -0.108
E50: K -0.041 | D -0.041 | H -0.2 | I -0.156 | S -0.291 | G -0.594 | A -0.074 | N -0.252 | Y -0.117 | Q 0.013 | W -0.672 | P -0.94 | L -0.201 | R -0.249 | M -0.24 | C -0.088
G48: K -0.951 | R -0.944 | M -0.99 | W -0.84 | L -0.982 | A -0.788 | S -0.804 | C -0.919 | V -0.884 | N -0.578 | Q -1.02 | P -0.633 | H -0.305 | T -0.813 | F -0.796 | D -0.804
T42: H -0.075 | I -0.181 | R -0.014 | Q -0.032 | S -0.011 | D -0.011 | A -0.004 | P -0.106 | V -0.122 | L -0.162 | F -0.215 | Y -0.1 | N -0.083 | C -0.051 | K -0.131
I46: F -0.237 | S -1 | R -0.909 | C -0.17 | T -0.654 | P -1 | E -0.939 | L -0.034 | Q -0.828 | W -0.257 | N -0.644 | A -0.584 | H -0.874 | V -0.109 | G -0.796 | K -0.835 | M 0.069
L54: Q -0.446 | K -0.649 | D -0.842 | I -0.157 | E -0.484 | R -0.682 | M -0.009 | H -0.486 | G -0.791 | C -0.374 | F -0.051
L41: W -0.132 | P -0.028 | H -0.063 | C -0.056 | E -0.153 | V -0.024 | R -0.191 | T -0.061 | S -0.127 | G -0.134 | N -0.258 | A -0.049 | F -0.094 | M -0.008 | D -0.386 | Y -0.025 | Q -0.117 | I 0.006
D40: A -0.226 | P -0.111 | G -0.239 | I -0.533 | H -0.223 | N -0.043 | M -0.543 | R -0.292 | Y -0.698 | T -0.263 | C -0.281 | Q -0.268 | W -0.989 | V -0.44 | E -0.112 | S -0.124 | K -0.23
N45: E -0.039 | M -0.054 | K 0.032 | R -0.038 | Q -0.086 | A 0.003 | Y -0.191 | I -0.251 | T -0.01 | S -0.019 | V -0.122 | D -0.148 | L -0.195 | C -0.063 | F -0.348 | P -0.373 | W -0.276 | H 0.015
C52: I 0.076 | V -0.122 | E -0.457 | S -0.335 | Q -0.615 | G -0.575 | K -0.887 | N -0.47 | P -1.03 | T -0.226 | A -0.22 | L -0.077 | Y -0.431 | F -0.333
R49: W -0.143 | F -0.113 | K -0.086 | T -0.085 | I -0.203 | M 0.042 | V -0.082 | G -0.125 | P 0.001 | L -0.072 | E 0.041 | Q -0.021 | N -0.257 | C -0.109 | Y -0.077 | A 0.006 | S -0.006 | H -0.152 | D -0.1
L51: M -0.163 | A -0.982 | Q -0.951 | T -0.825 | D -0.786 | W -1.04 | P -0.746 | F -0.815 | E -0.818 | V -0.652 | G -0.92 | R -0.813 | I -0.374 | K -1.13 | H -0.928 | N -0.897
F34: S -0.063 | Q -0.012 | R -0.035 | W -0.092 | Y 0.015 | T -0.061
T43: I -0.202 | R -0.027 | Q -0.016 | M -0.043 | A 0 | Y -0.005 | P 0.013 | W -0.123 | C 0.013 | F -0.299 | S 0.014 | H -0.149 | D 0.034 | V -0.065 | K 0.102 | N -0.037
S47: E -0.061 | G -0.14 | W -0.812 | M -0.446 | A -0.161 | T 0.03 | H -0.266 | D -0.07 | F -0.866 | Y -0.637 | K -0.137 | R -0.277 | V -0.418 | C -0.039 | P -0.04 | N -0.041 | I -0.279 | Q -0.276
I39: H -0.06 | C -0.042 | Y -0.317 | P -0.17 | M -0.021 | A -0.192 | W -0.145 | R -0.281 | E -0.118 | V 0.037 | Q -0.22 | N -0.07 | G -0.185 | T -0.035 | S -0.275 | D -0.288 | F -0.011 | K -0.244
M36: P -0.196 | N -0.189 | Q -0.08 | W -0.118 | K -0.062 | R -0.029 | H -0.193 | I -0.05 | L 0.043 | D -0.019 | Y -0.053 | V -0.013 | G -0.182 | C 0.081 | E -0.031 | S -0.102 | F -0.09 | A -0.025
T37: K 0.039 | H -0.037 | D -0.22 | S -0.07 | W -0.115 | N -0.027 | C -0.044 | E 0.017 | M -0.028 | F -0.019 | G -0.004 | V -0.1 | Q -0.009 | A -0.03 | P 0.014 | R -0.033 | I -0.256
S53: P -0.522 | G -0.068 | Q -0.085 | R -0.057 | D 0.076 | T -0.144 | M -0.121 | F -0.269 | N -0.033 | H -0.171 | A -0.063 | W -0.381 | C -0.061 | L -0.108 | V -0.331
